Results published in the nanobody polyreactivity screen of Harvey et al. (2022).

test: yeast display, Sf9 membrane polyspecificity reagent, FACS + sequencing; frameworks hold sequencing errors
Method in brief: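 Nanobodies came from a synthetic yeast display library in Saccharomyces cerevisiae BJ5465, induced with galactose for 36–48 hours and stained for 1 hour at 4 °C with 10% biotinylated, detergent-solubilized Sf9 membrane reagent. Cells were enriched on streptavidin microbeads and then FACS-sorted, with low and high (top ~1%) gates set on anti-HA fluorescence for expression and streptavidin fluorescence for reagent binding. Each polyreactivity label reflects the gate a clone came from. Genes were amplified by colony PCR, sequenced by MiSeq 2 × 250 and filtered by CDR length.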

| Sequence | polyreactivity (PSR sort gate) |
| --- | --- |
| QVQLVESGGGLVQAGGSLRLTCAASGRTFKGYAMGWYRQEPGKERELVAAISYRGGSTYYADSVKGRFTISRDNAKNTVYLQMNSLKPEDTAVYYCAAQGRSKYRGYYYWGQGTQVTVSS | high polyreactivity |
| QVQLVESGGGLVQAGGSLRLTCAASGRTFPGNAMGWYRQAPGKERELVAAISWSVDRTYYADSVKGRFTISRDNAKNTVYLQMNSLKPEDTAVYYCAAVHWWSSSLRMYYWGQGTQVTVSS | low polyreactivity |
| QVQLVESGGGLVQAGGSLRLTCAASGRTFQYYVMVWYRQAPGKEREFVAAISTSGGRTYYADSVKGRFTISRDNAKNSVYLQMNSLKPEATAVYYCAATGFSYRYFQTRDYWGQGTQVTVSS | high polyreactivity |
| QVQLVESGGGLVQAGGSLRLTCAASGRTFRIYAMGWYRQAPGKERELVAAITRRGGSTYYADSVKGRFTISLDNAKNTVNLQMNSLKPEDTAVYYCAAELRYGYLYPYDSWGQGTQVTVSS | high polyreactivity |
| QVQLVESGGGLVQAGGSLRLTCAASGRTFRSYAMGWYRQAPGKERELVAAISDGGSTNYADSVKGRFTISRDNAKNTVYLQMNSLKPEDTAVYYCAAEIFFAVFRFYYWGQGTQVTVSS | low polyreactivity |
| QVQLVESGGGLVQAGGSLRLTCAASGRTLRNYAMGWYRQPPGKERELVATITYRGGSTYYADSVKGRFTISRDNAKNTVYLKRNCLKPEDTAVYYCAARTSSYSFQYAYNYWGQGTQVTVSS | high polyreactivity |
| QVQLVESGGGLVQAGGSLRLTCAASGRTLVPYVMGWYRQAPGKERELVASITSGGSTYYADSVKGRFTISRDNAKNTVYLQMNSLKPEDTAVYYCATRQSAERWGYYYWGQGTQVTVSS | low polyreactivity |
| QVQLVESGGGLVQAGGSLRLTCAASGSIFGTYAMGWYRQAPGKERQLVAAISWSDGSTYYADSVKGRFTISRDTAKNTFYLQMNSRKPEDTAVEYCAKVYRSIGPNVSRYGLSYYDWGHGTQVTVSS | low polyreactivity |
| QVQLVESGGGLVQAGGSLRLTCAASGSIFNGYAMGCYRQAPGKERELVAAIRTRGGSTYYADSVKGRFTISRDIAMNTVYLQMNSLKPEDTAVYYCAKRYFGWYGNFDYWGQGTQVTVSS | high polyreactivity |
| QVQLVESGGGLVQAGGSLRLTCAASGSIFRDNVMGWSRQAPGKERELVAAISKRGGSTYYADSVKGRFTISRDNAKNTVYLQMNSLKPEDTAVYYCAAPQGRSHYYRYDYWGQGTQVTVSS | high polyreactivity |
| QVQLVESGGGLVQAGGSLRLTCAASGSIFRRNAMGWYRQAPGKERELVAAISWSGGDTYYADSVKGRFTISRDNAKNTVYLQMNSLKPEDTAVYYCAAEYYRPYYGESYDYWGQGTQVTVSS | high polyreactivity |
| QVQLVESGGGLVQAGGSLRLTCAASGSIFRYYAMGWYRQAPGKERELVAAISRSGGSTYYADSVKGRFTISRDNAKNTVYLQMNSLKPEDTAVYYCAAEYRVRSQGYDYWGQGTQVTVSS | high polyreactivity |
| QVQLVESGGGLVQAGGSLRLTCAASGSIFSYYAMGWYRQAPGKERELVAAITSGGGTYYADSVKGRFTISRDNAKNTVFLQMNSLKPEDTAVYYCAKDGYPDQDVQVFNDSDYWGQGTQVTVSS | low polyreactivity |
| QVQLVESGGGLVQAGGSLRLTCAASGSIFVGYAMGWYRQAPGKERELVAAITGSGTRTYYADSVKGRFTISRDNAKNTVYLQMNSLKPEDTAVYYCAADYFRYYPYDYWGQGTQVTVSS | low polyreactivity |
| QVQLVESGGGLVQAGGSLRLTCAASGSIFVNNAMGWYRQAPGKERELVAAISSRSSRTFYADSVKGRFTISRDNAKNTVYLQMNSLKPEDTAVYYCAVKKRAPDGDYWGQGTQVTVSS | high polyreactivity |
| QVQLVESGGGLVQAGGSLRLTCAASGSIFVQNAMGWYRQEPGKERELVATISRRGGSTYYADSVKGRFTISRDNAKNTVYLQMNSLKPEDPAVYYSAARKLRTLWGYWGQGTQVTVSS | high polyreactivity |
| QVQLVESGGGLVQAGGSLRLTCAASGSIFYSYAMGWYRQAPGKERELVAAISWDASTYYADSVNGRFTISRDNAKNTVYLQMHSLKPEDSAVYYCNADIPYFFVFDAYDYWGQGTQVTVSS | low polyreactivity |
| QVQLVESGGGLVQAGGSLRLTCAASGSIFYYYAMGWYRQAPGKERELVASITYRGGSTYYADSVKGRFTISRDYAKNTVYLLMNSLKPEDTAFYYCAVVGYRYRHYYWGQGTQVTVSS | high polyreactivity |
| QVQLVESGGGLVQAGGSLRLTCAASGSILYYNAMGWYRQAPGKEREFVAAISDSGSSTYYADSVKGRFTISRDNAKNTVYLQMNSLKPEDTAVYYCNAYQGDKYDSWGQGTQVTVSS | low polyreactivity |
| QVQLVESGGGLVQAGGSLRLTCAASGSIYVGNAMGWNRHAPGKEREFVAAISRSGGRTYYADSVKGRFTISRDNEKNTVYLQMNSLKPEDTAVYYCNAYGWEQRQMDSWGQGTQVTVSS | high polyreactivity |
| QVQLVESGGGLVQAGGSLRLTCAASGSNFVYNAMGWYRQAPGKERELVAAISSRGGSTYYADSVKGRFTISRDNAKNTVYLQMKSLKPEDTAVYYCNAYGPRAYRGGSWGQGTQVTVSS | high polyreactivity |

| Sequence | polyreactivity (PSR sort gate) |
| --- | --- |
| QVQLVESGGGLVQAGGSLRLTCAASGSSLDHYTMGWYRQAPGKEMELVAGIRWTGGRTYYADSVKGRFTISRDNAKNTVYLQMNSLKQEDNAVYYCAKTGWYGPVLRFYYWGQGTQVTVSS | high polyreactivity |
| QVQLVESGGGLVQAGGSLRLTCAASGSTFGWYAMGWYRQAPGKERELVAAIRSNGGSTYYADSVKGRFTISRDNAKNTVYLHMNSLKPEDTAVYYCAGRGSPSKHHWYDYWGQGTQVNVSS | low polyreactivity |
| QVQLVESGGGLVQAGGSLRLTCAASGSTFRWYAMGWYRQAPAKERELVAAIRSAGSTDYADSVKGRFTISRDNAKNTVYLQINSLKPEDTAVYYCAAYFRYRSSRYGYWGQGTQVTVSS | high polyreactivity |
| QVQLVESGGGLVQAGGSLRLTCAASGSTFRYYDMGWYRQAPGKERELVAAITTSGDDTYYADSVKRRFTISRDNAKNSVYLPMNSLKPEDTAVYYCAADGYGGHKYELESWGQGTQVTVSS | low polyreactivity |
| QVQLVESGGGLVQAGGSLRLTCAASGSTFSYYAMGWYRQPPRKERELVAVITWSGASTYYADSVKGRFTISRDNAKNTVYLQMNSLKPEDTAVYYCAADKYLSYDYWGQGTQVSVSS | low polyreactivity |
| QVQLVESGGGLVQAGGSLRLTCAASGSTFYFNAIGWYRQAPGKESELVAAISGGGRTNYADSVKGRFTISRDNAKNTVYLQMNSLKPEDTAVYYCAARNRGLRLSNYFGGNYNRDYWGQGTQVTVSS | low polyreactivity |
| QVQLVESGGGLVQAGGSLRLTCAASGSTFYRNAMGWYRQAPVKERELVATISSSDGSTYYADSVKGRFTISRDNAKNTVYLQMNSLKPEDTAVYYCATEIYYTKTYDSWGQGTQVTVSS | low polyreactivity |
| QVQLVESGGGLVQAGGSLRLTCAASGSTFYYNAMGWYRQAPAKERELVADISWRGGITYYADSVKGRFTISRDNAKNTVYLQMNSLKPEDTAVYYFKADAESFDDGYWGQGTQVTVSS | low polyreactivity |
| QVQLVESGGGLVQAGGSLRLTCAASGSTIADNAMGWYRPAPGTERELVAGITRRGGSTYYADSVKGRFTISRDNAKNTVYLQMNSLKPEDTAVYYCNKGPVRGRYSVWPIEMDYWGQGTQVTVSS | low polyreactivity |
| QVQLVESGGGLVQAGGSLRLTCAASGSTSEVYAMGWYRQAPGKEREFVAAISRSGGTTYYADSVKGRFTISRDNAKNTVYLQMKSVKPEDTAVYYCNARGYSGVSGKYGYWGQGTQVTVSS | high polyreactivity |
| QVQLVESGGGLVQAGGSLRLTCAASGSTSPANTMGWYRQAPGKETEFVAGISRRGGRTYYADSVKGRFTISRDNAKNTVYLQMNSLKPEDTAVFYCATALIVRCPSRYEYWGQGTQVTVSS | high polyreactivity |
| QVQLVESGGGLVQAGGSLRLTCAATGRIFSRYAMGWYRQAPGKERELVAAISRSGGSTYYADSVKGRFTISRDNAKNTVYFQMNSLKPEDTAVYYCAARNVFSYPPGSYYYWGQGTQVTVSS | high polyreactivity |
| QVQLVESGGGLVQAGGSLRLTCAGSGSTYGKYAIGGYRQAPGKERQLVAAISYRGGRTFYADSVKGRFTISRDNAKNTVFLQMKSLKPEDTAVYYCAAYPGVSRGTGPRRYDYWGQGTQVTVSS | high polyreactivity |
| QVQLVESGGGLVQAGGSLRLTCASSGIIFKLYAMGWYRQAPAKESELVAAITYRGGTTYYADSVKGRFTITRDNAKNTVYLQMNSLKPEDTAVYYCAVAVTSYSSKKLYYWGQGTQVTVSS | low polyreactivity |
| QVQLVESGGGLVQAGGSLRLTCASSGRILVSYAIGWYRQAPGKERELVAAISRSGGSTYYADSVKGRFTISRDIAKNTVYLQMNSLKTEDTAVYYCNVYRFSRYDYWGQGTKVTVSS | high polyreactivity |
| QVQLVESGGGLVQAGGSLRLTCDASGRIFVHNAMGWYRQAPGKERELVAAISWSGSSTYYADSVKGRFTISRDNAKNSVYLQMNSLKPEDTAVYYCLGQGTQVTVSS | low polyreactivity |
| QVQLVESGGGLVQAGGSLRLTCGASGRIFSFYVMGWYRQAPGKERELVAAISLSGGSTYYADSVKGRFTISRDNAKNTVYLQMNSLKPEDTAVYYCAARYASPRYKSKMDYWGQGTQVTVSS | high polyreactivity |
| QVQLVESGGGLVQAGGSLRLTSAASGFIFWPYLMGWYRQAPGKDRELVAAISQGDGSTYYADSVKVRFTISRDNAKNTVYLQMNSLKGEDTAVYYCAADVTVAWYPVYPGFYYWGQGTQVTVSS | low polyreactivity |
| QVQLVESGGGLVQAGGSLRLTSAASGRIFGYYAMGWYRQAPGKERDLVAAIRYSSGRTYYADSVKGRFTISRDNAKNIVYLQMNSLKPEDTAVYYGNAGYLFLRSYPHDYWGQGTQVTVSS | high polyreactivity |
| QVQLVESGGGLVQAGGSLRLTSAASGSTFLKYTMGWYRQAPGKERELVAGITYSGGSTSYADSVKGRFTISRDNAKNTVYFQMNSLKPEDTAVYYSAAARNTVYSYRGLFYWGQGTQVTLSS | high polyreactivity |
